# No end group written: not given here.
# B1: CllTx1-Fc fusion protein (Fc fusion)
# chain: ITINVKCTSPQQCLRPCKDRFGQHAGGKCINGKCKCYP
# modifications: ends and bridges not checked; also: fused to human IgG1 Fc fragment, limits and linker not given here
# notes: mature; also called recombinant CllTx1-Fc fusion protein; not shown: human IgG1 Fc fragment
# Target: T1, Kv1.3 (human potassium voltage-gated channel subfamily A member 3) (human, UniProt P22001 1-575)
# T1 construct: whole, on cells
# Assay: immunofluorescence staining of Kv1.3 expressing HEK293F cells, flow cytometry
# T1 sequence (P22001 whole entry): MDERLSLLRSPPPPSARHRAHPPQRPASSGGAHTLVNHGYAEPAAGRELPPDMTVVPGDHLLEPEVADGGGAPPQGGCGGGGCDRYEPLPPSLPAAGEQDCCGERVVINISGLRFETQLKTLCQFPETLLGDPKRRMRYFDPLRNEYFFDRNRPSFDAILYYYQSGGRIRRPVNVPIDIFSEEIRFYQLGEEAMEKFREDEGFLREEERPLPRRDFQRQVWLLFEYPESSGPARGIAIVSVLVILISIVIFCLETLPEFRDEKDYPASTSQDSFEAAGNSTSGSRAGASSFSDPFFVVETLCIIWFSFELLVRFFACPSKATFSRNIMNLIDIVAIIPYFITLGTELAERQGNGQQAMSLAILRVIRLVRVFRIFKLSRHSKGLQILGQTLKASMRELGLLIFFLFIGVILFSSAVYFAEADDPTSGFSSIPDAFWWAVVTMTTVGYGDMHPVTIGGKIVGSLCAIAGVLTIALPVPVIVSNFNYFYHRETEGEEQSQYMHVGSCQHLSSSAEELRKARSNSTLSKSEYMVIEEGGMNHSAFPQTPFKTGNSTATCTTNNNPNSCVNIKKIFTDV
binder,measurement,value
B1,binding result,binds

# — patent US20200190151A1 (Scripps Research, published 2020)
